Test results: paper PMC2628407

Legend:
[1] = test system: FMRP (His-tagged recombinant); test: EMSA competition; conditions: vs 32P-N19; EMSA or filter binding as in ref 4, with K+ or Na+; buffer, pH and temperature not in the material
[2] = test system: FMRP (His-tagged recombinant); test: filter binding competition; conditions: vs 32P-N19; EMSA or filter binding as in ref 4, with K+ or Na+; buffer, pH and temperature not in the material
[3] = test system: FXR1P Isoe; test: filter binding competition; conditions: self-competition, 32P-Sod1; EMSA or filter binding as in ref 4, with K+ or Na+; buffer, pH and temperature not in the material

Substance	binding signal (% competition at 5 nM) [1]	IC50 [2]	IC50 [3]
Sod1 full-length mRNA	65	3 nM	20 nM
Sod1-5' region	–	3 nM	–
